Results on ten molecules are retold here after patent US20130195871A1 (AbbVie / Abbott, published 2013).

The target of assay [1] is T1, Recombinant Human MSP Receptor ECD-His tag (human, UniProt Q04912 25-957).
T1 construct: extracellular domain; bought reagent; also called RON
Put plainly: SPR (Biacore). A general note: SPR reads the build-up and loss of mass on a sensor chip optically.
Experimental: (§1) The BIACORE assay (Biacore, Inc, Piscataway, N.J.) determined the affinity of antibodies or DVD-Ig proteins with kinetic measurements of on-rate and off-rate constants. Binding of antibodies or DVD-Ig proteins to a target antigen (for example, a purified recombinant target antigen) was determined by surface plasmon resonance-based measurements with a Biacore® 1000 or 3000 instrument (Biacore AB, Uppsala. Sweden) using running HBS-EP (10 mM HEPES [pH 7.4], 150 mM NaCl, 3 mM EDTA, and 0.005% surfactant P20) at 25° C. […] For example, approximately 5000 RU of goat anti-mouse IgG, (Fcγ), fragment specific polyclonal antibody (Pierce Biotechnology Inc, Rockford, Ill.) diluted in 10 mM sodium acetate (pH 4.5) was directly immobilized across a CM5 research grade biosensor chip using a standard amine coupling kit according to manufacturer's instructions and procedures at 25 μg/ml. Unreacted moieties on the biosensor surface were blocked with ethanolamine. Modified carboxymethyl dextran surface in flowcell 2 and 4 was used as a reaction surface. Unmodified carboxymethyl dextran without goat anti-mouse IgG in flow cell 1 and 3 was used as the reference surface. For kinetic analysis, rate equations derived from the 1:1 Langmuir binding model were fitted simultaneously to association and dissociation phases of all eight injections (using global fit analysis) with the use of Biaevaluation 4.0.1 software. Purified antibodies or DVD-Ig proteins were diluted in HEPES-buffered saline for capture across goat anti-mouse IgG specific reaction surfaces. Antibodies or DVD-Ig proteins to be captured as a ligand (25 μg/ml) were injected over reaction matrices at a flow rate of 5 μl/minute. The association and dissociation rate constants, kₒₙ (M⁻¹s⁻¹) and koff (s⁻¹) were determined under a continuous flow rate of 25 μl/minute. Rate constants were derived by making kinetic binding measurements at different antigen concentrations ranging from 10-200 nM. The equilibrium dissociation constant (M) of the reaction between antibodies or DVD-Ig proteins and the target antigen was then calculated from the kinetic rate constants by the following formula: KD=koff/kₒₙ. Binding was recorded as a function of time and kinetic rate constants were calculated.

In a further assay the target is T2, Recombinant Human IGF1R (human, UniProt P08069 31-932).
T2 construct: bought reagent
Kind of assay: SPR (Biacore), N-terminal VD.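 Also: capture of antibodies or DVD-Ig proteins on an anti-mouse IgG chip surface, recombinant antigen injected at 10–200 nM in HBS-EP running buffer at 25 °C.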

Assay [2] deals with T3, Recombinant Human ErbB3/FC Chimera-His tag (human, UniProt P21860 20-643).
T3 construct: bought reagent
Put plainly: SPR (Biacore), N-terminal VD.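 Also: capture of antibodies or DVD-Ig proteins on an anti-mouse IgG chip surface, recombinant antigen injected at 10–200 nM in HBS-EP running buffer at 25 °C.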
Experimental: as §1

For assay [3], the target named is T1, Recombinant Human MSP Receptor ECD-His …. Put plainly: SPR (Biacore), N-terminal VD.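 Also: capture of antibodies or DVD-Ig proteins on an anti-mouse IgG chip surface, recombinant antigen injected at 10–200 nM in HBS-EP running buffer at 25 °C.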
Experimental: as §1

Experimental for Recombinant Human IGF1R: as §1

B1: DVD2209 (bispecific antibody)
VH: QVQLQESGPGLVKPSEILSLTCTVSGGSISSHYWSWVRQPPGKGLEWIGYIYYSGSTNYNPSLKSRVTISVDTSKNQFSLNLSSVTAADTAVYYCARIPNYYDRSGYYPGYWYFDLWGRGTLVTVSSASTKGPEVQLVQSGGGLVKPGGSLRLSCAASGFTFSSYAMHWVRQAPGKGLEWVAVISYDGSNKYYADSVKGRFTISRDNSKNTLYLQMNSLRAEDTAVYYCARFSGWPNNYYYYGMDVWGQGTTVTVSS
VL: QAVLTQPSSLSAPPGASASLTCTLRSGFNVDSYRISWYQQKPGSPPQYLLRYKSDSDKQQGSGVPSRFSGSKDASANAGILLISGLQSEDEADYYCMIWHSSAWVFGGGTKLTVLRTVAAPDVVMTQSPLSLPVTPGEPASISCRSSQSLLHSNGFNYVDWYLQKPGQSPHLLIYFGSYRASGVPDRFSGSGSGTDFTLKISRVEAEDVGVYYCMQALQTPPWTFGQGTKVEIR
notes: DVD-Ig, outer AB034 / inner AB005
As usually defined, the Kd is the constant that tells how readily two partners part at equilibrium. Take B1: in assay [1], the Kd came out at 23 nM.

B2: DVD2211 (bispecific antibody)
VH: QVQLQESGPGLVKPSEILSLTCTVSGGSISSHYWSWVRQPPGKGLEWIGYIYYSGSTNYNPSLKSRVTISVDTSKNQFSLNLSSVTAADTAVYYCARIPNYYDRSGYYPGYWYFDLWGRGTLVTVSSASTKGPEVQLVQSGGGLVKPGGSLRLSCAASGFTFSSYAMHWVRQAPGKGLEWVAVISYDGSNKYYADSVKGRFTISRDNSKNTLYLQMNSLRAEDTAVYYCARFSGWPNNYYYYGMDVWGQGTTVTVSS
VL: QAVLTQPSSLSAPPGASASLTCTLRSGFNVDSYRISWYQQKPGSPPQYLLRYKSDSDKQQGSGVPSRFSGSKDASANAGILLISGLQSEDEADYYCMIWHSSAWVFGGGTKLTVLRTVAAPSVFIFPPDVVMTQSPLSLPVTPGEPASISCRSSQSLLHSNGFNYVDWYLQKPGQSPHLLIYFGSYRASGVPDRFSGSGSGTDFTLKISRVEAEDVGVYYCMQALQTPPWTFGQGTKVEIR
notes: as for B1
With B2, in assay [1], the dissociation constant (Kd) came to 15 nM.

B3: DVD2208 (bispecific antibody)
VH: EVQLVQSGGGLVKPGGSLRLSCAASGFTFSSYAMHWVRQAPGKGLEWVAVISYDGSNKYYADSVKGRFTISRDNSKNTLYLQMNSLRAEDTAVYYCARFSGWPNNYYYYGMDVWGQGTTVTVSSASTKGPQVQLQESGPGLVKPSEILSLTCTVSGGSISSHYWSWVRQPPGKGLEWIGYIYYSGSTNYNPSLKSRVTISVDTSKNQFSLNLSSVTAADTAVYYCARIPNYYDRSGYYPGYWYFDLWGRGTLVTVSS
VL: DVVMTQSPLSLPVTPGEPASISCRSSQSLLHSNGFNYVDWYLQKPGQSPHLLIYFGSYRASGVPDRFSGSGSGTDFTLKISRVEAEDVGVYYCMQALQTPPWTFGQGTKVEIRRTVAAPQAVLTQPSSLSAPPGASASLTCTLRSGFNVDSYRISWYQQKPGSPPQYLLRYKSDSDKQQGSGVPSRFSGSKDASANAGILLISGLQSEDEADYYCMIWHSSAWVFGGGTKLTVL
notes: DVD-Ig, outer AB005 / inner AB034
Usually koff stands for a measure of how fast the partners let go of each other. As usually defined, the kon is the second-order rate constant of association. Turning to B3, in assay [1], the dissociation constant (Kd) was found to be 16 nM, the koff amounted to 0.0013 s⁻¹ and the kon was determined as 83000 M⁻¹ s⁻¹.

B4: DVD2210 (bispecific antibody)
VH: EVQLVQSGGGLVKPGGSLRLSCAASGFTFSSYAMHWVRQAPGKGLEWVAVISYDGSNKYYADSVKGRFTISRDNSKNTLYLQMNSLRAEDTAVYYCARFSGWPNNYYYYGMDVWGQGTTVTVSSASTKGPQVQLQESGPGLVKPSEILSLTCTVSGGSISSHYWSWVRQPPGKGLEWIGYIYYSGSTNYNPSLKSRVTISVDTSKNQFSLNLSSVTAADTAVYYCARIPNYYDRSGYYPGYWYFDLWGRGTLVTVSS
VL: DVVMTQSPLSLPVTPGEPASISCRSSQSLLHSNGFNYVDWYLQKPGQSPHLLIYFGSYRASGVPDRFSGSGSGTDFTLKISRVEAEDVGVYYCMQALQTPPWTFGQGTKVEIRRTVAAPSVFIFPPQAVLTQPSSLSAPPGASASLTCTLRSGFNVDSYRISWYQQKPGSPPQYLLRYKSDSDKQQGSGVPSRFSGSKDASANAGILLISGLQSEDEADYYCMIWHSSAWVFGGGTKLTVL
notes: as for B3
As to B4, in assay [1], the Kd was 15 nM, the koff turned out to be 0.0017 s⁻¹ and the kon turned out to be 110000 M⁻¹ s⁻¹.

B5: DVD2212 (bispecific antibody)
VH: EVQLVQSGGGLVKPGGSLRLSCAASGFTFSSYAMHWVRQAPGKGLEWVAVISYDGSNKYYADSVKGRFTISRDNSKNTLYLQMNSLRAEDTAVYYCARFSGWPNNYYYYGMDVWGQGTTVTVSSASTKGPSVFPLAPQVQLQESGPGLVKPSEILSLTCTVSGGSISSHYWSWVRQPPGKGLEWIGYIYYSGSTNYNPSLKSRVTISVDTSKNQFSLNLSSVTAADTAVYYCARIPNYYDRSGYYPGYWYFDLWGRGTLVTVSS
VL: DVVMTQSPLSLPVTPGEPASISCRSSQSLLHSNGFNYVDWYLQKPGQSPHLLIYFGSYRASGVPDRFSGSGSGTDFTLKISRVEAEDVGVYYCMQALQTPPWTFGQGTKVEIRRTVAAPQAVLTQPSSLSAPPGASASLTCTLRSGFNVDSYRISWYQQKPGSPPQYLLRYKSDSDKQQGSGVPSRFSGSKDASANAGILLISGLQSEDEADYYCMIWHSSAWVFGGGTKLTVL
notes: as for B3
Take B5: in assay [1], the Kd is 16 nM, the koff stood at 0.0012 s⁻¹ and the kon was 74000 M⁻¹ s⁻¹.

B6: DVD2278 (bispecific antibody)
VH: EVQLVQSGAEVKKPGSSVKVSCKASGGTFSSYAISWVRQAPGQGLEWMGGIIPIFGTANYAQKFQGRVTITADKSTSTAYMELSSLRSEDTAVYYCARAPLRFLEWSTQDHYYYYYMDVWGKGTTVTVSSASTKGPEVQLVESGGGLVQPGGSLRLSCAASGFTFSIYSMNWVRQAPGKGLEWVSYISSSSSTIYYADSVKGRFTISRDNAKNSLYLQMNSLRDEDTAVYYCARDRGDFDAFDIWGQGTMVTVSS
VL: SSELTQDPAVSVALGQTVRITCQGDSLRSYYATWYQQKPGQAPILVIYGENKRPSGIPDRFSGSSSGNTASLTITGAQAEDEADYYCKSRDGSGQHLVFGGGTKLTVLGQPKAAPDIQMTQSPSSLSASVGDRVTITCQASQDITNYLNWYQQKPGKAPKLLIYDASNLETGVPSRFSGSGSGTDFTFTISSLQPEDIATYNCQQCENFPITFGQGTRLEIK
notes: DVD-Ig, outer AB075 / inner AB063
On to B6, for which, in the assay with Recombinant Human IGF1R, the Kd stood at 8.6 nM, the koff was determined as 0.00021 s⁻¹ and the kon turned out to be 25000 M⁻¹ s⁻¹.

B7: DVD2281 (bispecific antibody)
VH: EVQLLESGGGLVQPGGSLRLSCAASGFTFSHYVMAWVRQAPGKGLEWVSSISSSGGWTLYADSVKGRFTISRDNSKNTLYLQMNSLRAEDTAVYYCTRGLKMATIFDYWGQGTLVTVSSASTKGPEVQLVQSGAEVKKPGSSVKVSCKASGGTFSSYAISWVRQAPGQGLEWMGGIIPIFGTANYAQKFQGRVTITADKSTSTAYMELSSLRSEDTAVYYCARAPLRFLEWSTQDHYYYYYMDVWGKGTTVTVSS
VL: QSALTQPASVSGSPGQSITISCTGTSSDVGSYNVVSWYQQHPGKAPKLIIYEVSQRPSGVSNRFSGSKSGNTASLTISGLQTEDEADYYCCSYAGSSIFVIFGGGTKVTVLGQPKAAPSSELTQDPAVSVALGQTVRITCQGDSLRSYYATWYQQKPGQAPILVIYGENKRPSGIPDRFSGSSSGNTASLTITGAQAEDEADYYCKSRDGSGQHLVFGGGTKLTVL
notes: DVD-Ig, outer AB116 / inner AB075
With B7, in assay [2], the Kd came out at 6.1 nM, the koff worked out at 0.00024 s⁻¹ and the kon was 40000 M⁻¹ s⁻¹.

B8: DVD2316 (bispecific antibody)
VH: EVQLVQSGGGLVKPGGSLRLSCAASGFTFSSYAMHWVRQAPGKGLEWVAVISYDGSNKYYADSVKGRFTISRDNSKNTLYLQMNSLRAEDTAVYYCARFSGWPNNYYYYGMDVWGQGTTVTVSSASTKGPEVQLVESGGGLVQPGGSLRLSCAASGFTFTDYTMDWVRQAPGKGLEWVADVNPNSGGSIYNQRFKGRFTLSVDRSKNTLYLQMNSLRAEDTAVYYCARNLGPSFYFDYWGQGTLVTVSS
VL: DVVMTQSPLSLPVTPGEPASISCRSSQSLLHSNGFNYVDWYLQKPGQSPHLLIYFGSYRASGVPDRFSGSGSGTDFTLKISRVEAEDVGVYYCMQALQTPPWTFGQGTKVEIRRTVAAPDIQMTQSPSSLSASVGDRVTITCKASQDVSIGVAWYQQKPGKAPKLLIYSASYRYTGVPSRFSGSGSGTDFTLTISSLQPEDFATYYCQQYYIYPYTFGQGTKVEIK
notes: DVD-Ig, outer AB005 / inner AB080
In the case of B8, in assay [3], the Kd came out at 19 nM, the koff stood at 0.00089 s⁻¹ and the kon came to 46000 M⁻¹ s⁻¹.

B9: DVD2288 (bispecific antibody)
VH: EVQLVQSGAEVKKPGSSVKVSCKASGGTFSSYAISWVRQAPGQGLEWMGGIIPIFGTANYAQKFQGRVTITADKSTSTAYMELSSLRSEDTAVYYCARAPLRFLEWSTQDHYYYYYMDVWGKGTTVTVSSASTKGPEVQLVESGGGLVQPGGSLRLSCAASGFTFTDYTMDWVRQAPGKGLEWVADVNPNSGGSIYNQRFKGRFTLSVDRSKNTLYLQMNSLRAEDTAVYYCARNLGPSFYFDYWGQGTLVTVSS
VL: SSELTQDPAVSVALGQTVRITCQGDSLRSYYATWYQQKPGQAPILVIYGENKRPSGIPDRFSGSSSGNTASLTITGAQAEDEADYYCKSRDGSGQHLVFGGGTKLTVLGQPKAAPDIQMTQSPSSLSASVGDRVTITCKASQDVSIGVAWYQQKPGKAPKLLIYSASYRYTGVPSRFSGSGSGTDFTLTISSLQPEDFATYYCQQYYIYPYTFGQGTKVEIK
notes: DVD-Ig, outer AB075 / inner AB080
Turning to B9, in the assay with Recombinant Human IGF1R, the Kd turned out to be 12 nM, the off-rate constant (koff) amounted to 0.00026 s⁻¹ and the kon amounted to 22000 M⁻¹ s⁻¹.

B10: DVD2282 (bispecific antibody)
VH: EVQLVQSGAEVKKPGSSVKVSCKASGGTFSSYAISWVRQAPGQGLEWMGGIIPIFGTANYAQKFQGRVTITADKSTSTAYMELSSLRSEDTAVYYCARAPLRFLEWSTQDHYYYYYMDVWGKGTTVTVSSASTKGPQVQLQQWGAGLLKPSETLSLTCAVYGGSFSGYYWSWIRQPPGKGLEWIGEINHSGSTNYNPSLKSRVTISVETSKNQFSLKLSSVTAADTAVYYCARDKWTWYFDLWGRGTLVTVSS
VL: SSELTQDPAVSVALGQTVRITCQGDSLRSYYATWYQQKPGQAPILVIYGENKRPSGIPDRFSGSSSGNTASLTITGAQAEDEADYYCKSRDGSGQHLVFGGGTKLTVLGQPKAAPDIEMTQSPDSLAVSLGERATINCRSSQSVLYSSSNRNYLAWYQQNPGQPPKLLIYWASTRESGVPDRFSGSGSGTDFTLTISSLQAEDVAVYYCQQYYSTPRTFGQGTKVEIK
notes: DVD-Ig, outer AB075 / inner AB062
In the case of B10, in the assay with Recombinant Human IGF1R, the Kd was determined as 5.2 nM, the koff is 0.00013 s⁻¹ and the kon stood at 25000 M⁻¹ s⁻¹.
